Reference: IntAct's records for PubMed 31515488

B1: Transcription factor 12 (Homo sapiens), Q99081 (parent)
chain: MNPQQQRMAAIGTDKELSDLLDFSAMFSPPVNSGKTRPTTLGSSQFSGSGIDERGGTTSWGTSGQPSPSYDSSRGFTDSPHYSDHLNDSRLGAHEGLSPTPFMNSNLMGKTSERGSFSLYSRDTGLPGCQSSLLRQDLGLGSPAQLSSSGKPGTAYYSFSATSSRRRPLHDSAALDPLQAKKVRKVPPGLPSSVYAPSPNSDDFNRESPSYPSPKPPTSMFASTFFMQDGTHNSSDLWSSSNGMSQPGFGGILGTSTSHMSQSSSYGNLHSHDRLSYPPHSVSPTDINTSLPPMSSFHRGSTSSSPYVAASHTPPINGSDSILGTRGNAAGSSQTGDALGKALASIYSPDHTSSSFPSNPSTPVGSPSPLTGTSQWPRPGGQAPSSPSYENSLHSLQSRMEDRLDRLDDAIHVLRNHAVGPSTSLPAGHSDIHSLLGPSHNAPIGSLNSNYGGSSLVASSRSASMVGTHREDSVSLNGNHSVLSSTVTTSSTDLNHKTQENYRGGLQSQSGTVVTTEIKTENKEKDENLHEPPSSDDMKSDDESSQKDIKVSSRGRTSSTNEDEDLNPEQKIEREKERRMANNARERLRVRDINEAFKELGRMCQLHLKSEKPQTKLLILHQAVAVILSLEQQVRERNLNPKAACLKRREEEKVSAVSAEPPTTLPGTHPGLSETTNPMGHM
partner: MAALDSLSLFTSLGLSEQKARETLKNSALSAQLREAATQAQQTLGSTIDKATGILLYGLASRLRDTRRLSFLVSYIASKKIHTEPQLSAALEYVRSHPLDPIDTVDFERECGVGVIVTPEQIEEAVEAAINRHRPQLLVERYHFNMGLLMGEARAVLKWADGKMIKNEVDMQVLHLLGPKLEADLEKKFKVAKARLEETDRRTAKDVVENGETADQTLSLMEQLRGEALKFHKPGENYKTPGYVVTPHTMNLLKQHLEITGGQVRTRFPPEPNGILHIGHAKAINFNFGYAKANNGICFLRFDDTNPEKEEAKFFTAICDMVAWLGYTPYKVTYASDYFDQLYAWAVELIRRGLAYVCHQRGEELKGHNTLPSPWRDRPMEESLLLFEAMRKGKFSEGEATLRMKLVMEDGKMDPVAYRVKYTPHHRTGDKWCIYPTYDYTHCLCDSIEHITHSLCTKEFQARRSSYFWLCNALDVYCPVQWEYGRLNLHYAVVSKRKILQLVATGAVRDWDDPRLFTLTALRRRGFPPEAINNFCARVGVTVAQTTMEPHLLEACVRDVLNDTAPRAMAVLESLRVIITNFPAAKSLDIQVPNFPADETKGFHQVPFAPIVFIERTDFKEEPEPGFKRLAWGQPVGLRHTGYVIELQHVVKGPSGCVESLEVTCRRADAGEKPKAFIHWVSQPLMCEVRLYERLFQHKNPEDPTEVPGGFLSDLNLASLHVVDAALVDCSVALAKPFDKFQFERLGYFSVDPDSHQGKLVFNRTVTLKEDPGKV
B2: C-C motif chemokine 4 (Homo sapiens), P13236 (parent)
chain: MKLCVTVLSLLMLVAAFCSPALSAPMGSDPPTACCFSYTARKLPRNFVVDYYETSSLCSQPAVVFQTKRSKQVCADPSESWVQEYVYDLELN
partner: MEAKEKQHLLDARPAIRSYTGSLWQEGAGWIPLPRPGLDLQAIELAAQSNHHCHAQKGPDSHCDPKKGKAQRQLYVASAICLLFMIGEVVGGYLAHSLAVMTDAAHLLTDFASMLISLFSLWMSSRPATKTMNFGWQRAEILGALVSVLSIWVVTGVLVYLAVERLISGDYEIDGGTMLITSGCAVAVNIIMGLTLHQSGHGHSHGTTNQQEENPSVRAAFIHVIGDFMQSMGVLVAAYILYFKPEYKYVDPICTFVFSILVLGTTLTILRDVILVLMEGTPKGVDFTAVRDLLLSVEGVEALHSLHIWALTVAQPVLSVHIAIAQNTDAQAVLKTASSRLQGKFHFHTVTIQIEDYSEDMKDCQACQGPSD
B3: Keratin, type II cytoskeletal 79 (Homo sapiens), Q5XKE5 (parent)
chain: MRSSVSRQTYSTKGGFSSNSASGGSGSQARTSFSSVTVSRSSGSGGGAHCGPGTGGFGSRSLYNLGGHKSISVSVAGGALLGRALGGFGFGSRAFMGQGAGRQTFGPACPPGGIQEVTVNQSLLTPLHVEIDPEIQRVRTQEREQIKTLNNKFASFIDKVRFLEQQNKVLETKWALLQEQGQNLGVTRNNLEPLFEAYLGSMRSTLDRLQSERGRLDSELRNVQDLVEDFKNKYEDEINKHTAAENEFVVLKKDVDAAYMGRMDLHGKVGTLTQEIDFLQQLYEMELSQVQTHVSNTNVVLSMDNNRNLDLDSIIAEVKAQYELIAQRSRAEAEAWYQTKYEELQVTAGKHGDNLRDTKNEIAELTRTIQRLQGEADAAKKQCQQLQTAIAEAEQRGELALKDAQKKLGDLDVALHQAKEDLTRLLRDYQELMNVKLALDVEIATYRKLLESEESRMSGECPSAVSISVTGNSTTVCGGGAASFGGGISLGGSGGATKGGFSTNVGYSTVKGGPVSAGTSILRKTTTVKTSSQRY
partner: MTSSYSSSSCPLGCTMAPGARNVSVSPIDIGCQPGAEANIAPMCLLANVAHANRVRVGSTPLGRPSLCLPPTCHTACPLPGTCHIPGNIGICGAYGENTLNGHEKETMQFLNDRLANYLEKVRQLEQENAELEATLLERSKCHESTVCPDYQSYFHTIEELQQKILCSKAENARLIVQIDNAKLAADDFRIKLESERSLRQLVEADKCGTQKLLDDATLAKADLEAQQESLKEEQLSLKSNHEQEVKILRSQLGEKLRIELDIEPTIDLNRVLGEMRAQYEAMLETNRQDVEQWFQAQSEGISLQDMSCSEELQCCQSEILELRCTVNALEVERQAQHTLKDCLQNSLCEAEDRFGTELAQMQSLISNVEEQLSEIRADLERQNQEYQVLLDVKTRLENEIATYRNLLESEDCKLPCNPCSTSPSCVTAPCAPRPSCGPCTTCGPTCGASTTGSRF
B4: TNF receptor-associated factor 2 (Homo sapiens), Q12933 (parent)
chain: MAAASVTPPGSLELLQPGFSKTLLGTKLEAKYLCSACRNVLRRPFQAQCGHRYCSFCLASILSSGPQNCAACVHEGIYEEGISILESSSAFPDNAARREVESLPAVCPSDGCTWKGTLKEYESCHEGRCPLMLTECPACKGLVRLGEKERHLEHECPERSLSCRHCRAPCCGADVKAHHEVCPKFPLTCDGCGKKKIPREKFQDHVKTCGKCRVPCRFHAIGCLETVEGEKQQEHEVQWLREHLAMLLSSVLEAKPLLGDQSHAGSELLQRCESLEKKTATFENIVCVLNREVERVAMTAEACSRQHRLDQDKIEALSSKVQQLERSIGLKDLAMADLEQKVLEMEASTYDGVFIWKISDFARKRQEAVAGRIPAIFSPAFYTSRYGYKMCLRIYLNGDGTGRGTHLSLFFVVMKGPNDALLRWPFNQKVTLMLLDQNNREHVIDAFRPDVTSSSFQRPVNDMNIASGCPLFCPVSKMEAKNSYVRDDAIFIKAIVDLTGL

Variants of: B1
Conditions: with syq_human QARS1, P47897

effect of a mutation on the interaction	Variant
with no effect	L483R
with no effect	N479S

Variants of: B2
Conditions: with znt2_human SLC30A2, Q9BRI3

effect of a mutation on the interaction	Variant
with no effect	C18R
disrupting interaction strength	A16T
disrupting interaction strength	A21V

Variants of: B3
Conditions: with krt38_human KRT38, O76015

effect of a mutation on the interaction	Variant
with no effect	H266R
with no effect	D217Y

Variants of: B4
Conditions: with traf1_human TRAF1, Q13077
traf1_human TRAF1, Q13077, sequence (Q13077 whole entry): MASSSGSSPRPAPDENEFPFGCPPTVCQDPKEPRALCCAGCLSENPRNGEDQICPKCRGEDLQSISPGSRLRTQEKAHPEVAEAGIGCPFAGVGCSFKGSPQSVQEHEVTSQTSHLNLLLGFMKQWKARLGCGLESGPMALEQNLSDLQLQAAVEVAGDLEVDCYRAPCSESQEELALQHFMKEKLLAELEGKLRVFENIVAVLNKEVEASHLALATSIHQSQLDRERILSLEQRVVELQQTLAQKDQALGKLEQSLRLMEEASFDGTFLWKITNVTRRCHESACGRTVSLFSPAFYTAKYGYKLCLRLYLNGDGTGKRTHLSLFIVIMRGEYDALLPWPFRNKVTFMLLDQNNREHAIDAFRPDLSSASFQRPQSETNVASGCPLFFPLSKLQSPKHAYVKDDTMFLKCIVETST

effect of a mutation on the interaction	Variant
with no effect	T134A
with no effect	D488N
with no effect	V475I
with no effect	D462N
with no effect	V206I
